In paper PMC9896449 one finds Kd, koff and kon data, which are given here for one substance.

Assay [1] deals with BiShAb0201 (ShAb02 VNAR - (GGGGS)5 - ShAb01 VNAR - human IgG1 Fc) (nurse shark (Ginglymostoma cirratum)). Briefly: BLI.
Assay [2] has as its target ShAb01H02K (knob-in-hole heterodimer of ShAb01-Fc and ShAb02-Fc) (nurse shark (Ginglymostoma cirratum)). In words: BLI. For orientation: In BLI a coated tip is dipped into the sample, and binding shifts an interference pattern.

Regarding “SARS-CoV-2 WA-1 spike receptor binding domain (RBD) (from UniProt P0DTC2 331-527) (domain or fragment)”, in assay [1], the Kd (commonly a measure of binding affinity in units of concentration) is 1.07 nM; the koff (in general, the first-order rate constant of dissociation) was 2.82e-05 s⁻¹; the kon (as a rule, the rate constant with which the complex forms) stood at 26300 M⁻¹ s⁻¹. In assay [2], the dissociation constant (Kd) is 0.57 nM, the koff was found to be 6.98e-05 s⁻¹ and the kon amounted to 122000 M⁻¹ s⁻¹.
